According to US20170334951A1 (Memorial Sloan Kettering, published 2017):

What was measured:
Test in all cases: cell-based or functional assay
HLA-B3802 = HLA-B3802 (human)
HLA-B4402 = HLA-B4402 (human)
HLA-A0201 = HLA-A0201 (human)
HLA-B0702 = HLA-B0702 (human)
HLA-A0203 = HLA-A0203 (human)
HLA-B3501 = HLA-B3501 (human)
HLA-A0101 = HLA-A0101 (human)
HLA-A3101 = HLA-A3101 (human)
HLA-DRB11104 = HLA-DRB11104 (human)
HLA-DRB10402 = HLA-DRB10402 (human)
HLA-B4001 = HLA-B4001 (human)
HLA-B3801 = HLA-B3801 (human)
HLA-A2402 = HLA-A2402 (human)
HLA-B4701 = HLA-B4701 (human)
HLA-B3503 = HLA-B3503 (human)
HLA-C0401 = HLA-C0401 (human)
HLA-DRB10101 = HLA-DRB10101 (human)
HLA-B3508 = HLA-B3508 (human)
HLA-C1701 = HLA-C1701 (human)
HLA-B5701 = HLA-B5701 (human)
HLA-B3901 = HLA-B3901 (human)
HLA-DRB10401 = HLA-DRB10401 (human)
HLA-A6901 = HLA-A6901 (human)

TDSCTGSQA [WT1 206-214 TDSCTGSQA] was tested, and the “Cytotoxic CTL response, % (at 50:1) E:T ratio vs WT1+ allo APC with restricting HLA allele loaded with WT1 peptide” value (HLA-B3802) was 53% and the “Cytotoxic CTL response, % (at 50:1) E:T ratio vs WT1+ allo APC with restricting HLA allele loaded with WT1 peptide” value (HLA-B4402) was 88%.

In the case of NLYQMTSQLE [WT1 225-233 NLYQMTSQLE], the “Cytotoxic CTL response, % (at 50:1) E:T ratio vs WT1+ allo APC with restricting HLA allele loaded with WT1 peptide” value (HLA-A0201) is reported as 28%.

In the case of LKTHTTRTHT [WT1 398-406 …], the “Cytotoxic CTL response, % (at 50:1) E:T ratio vs WT1+ allo APC with restricting HLA allele loaded with WT1 peptide” value (HLA-A0201) is reported as 22%.

In the case of GALRNPTAC [WT1 (-119)-(-111) GALRNPTAC], the “Cytotoxic CTL response, % (at 50:1) E:T ratio vs WT1+ allo APC with restricting HLA allele loaded with WT1 peptide” value (HLA-B0702) is reported as 22%.

With RQRPHPGAL [WT1 (-125)-(-117) RQRPHPGAL] the “Cytotoxic CTL response, % (at 50:1) E:T ratio vs WT1+ allo APC with restricting HLA allele loaded with WT1 peptide” value (HLA-B0702) was 53%.

With LGATLKGVAA [WT1 243-252 LGATLKGVAA] the “Cytotoxic CTL response, % (at 50:1) E:T ratio vs WT1+ allo APC with restricting HLA allele loaded with WT1 peptide” value (HLA-A0203) was 21%.

In the case of HSFKHEDPM [WT1 174-182 HSFKHEDPM], the “Cytotoxic CTL response, % (at 50:1) E:T ratio vs WT1+ allo APC with restricting HLA allele loaded with WT1 peptide” value (HLA-B3501) is reported as 63%.

NLGATLKGV [WT1 242-250 NLGATLKGV] was tested, and the “Cytotoxic CTL response, % (at 50:1) E:T ratio vs WT1+ allo APC with restricting HLA allele loaded with WT1 peptide” value (HLA-A0201) was 14% and the “Cytotoxic CTL response, % (at 50:1) E:T ratio vs WT1+ allo APC with restricting HLA allele loaded with WT1 peptide” value (HLA-A0101) was 17%.

HFPPSLPPT [WT1 (-107)-(-99) HFPPSLPPT] was tested, and the “Cytotoxic CTL response, % (at 50:1) E:T ratio vs WT1+ allo APC with restricting HLA allele loaded with WT1 peptide” value (HLA-A3101) was 27%.

For WNQMNLGATLK [WT1 238-248 WNQMNLGATLK], the “Cytotoxic CTL response, % (at 50:1) E:T ratio vs WT1+ allo APC with restricting HLA allele loaded with WT1 peptide” value (HLA-DRB11104) was 1%.

In the case of LDFAPPGASAY [WT1 38-48 LDFAPPGASAY], the “Cytotoxic CTL response, % (at 50:1) E:T ratio vs WT1+ allo APC with restricting HLA allele loaded with WT1 peptide” value (HLA-DRB10402) is reported as 71%.

KLGAAEASA [WT1 (-27)-(-19) KLGAAEASA] was tested, and the “Cytotoxic CTL response, % (at 50:1) E:T ratio vs WT1+ allo APC with restricting HLA allele loaded with WT1 peptide” value (HLA-A0201) was 22%.

With GYESDNHTT [WT1 269-278 GYESDNHTT] the “Cytotoxic CTL response, % (at 50:1) E:T ratio vs WT1+ allo APC with restricting HLA allele loaded with WT1 peptide” value (HLA-B3501) was 23% and the “Cytotoxic CTL response, % (at 50:1) E:T ratio vs WT1+ allo APC with restricting HLA allele loaded with WT1 peptide” value (HLA-A0101) was 26%.

THSPTHPPR [WT1 (-99)-(-91) THSPTHPPR] was tested, and the “Cytotoxic CTL response, % (at 50:1) E:T ratio vs WT1+ allo APC with restricting HLA allele loaded with WT1 peptide” value (HLA-A0201) was 21% and the “Cytotoxic CTL response, % (at 50:1) E:T ratio vs WT1+ allo APC with restricting HLA allele loaded with WT1 peptide” value (HLA-B4001) was 31%.

For PAPPPPPPP [WT1 58-66 PAPPPPPPP], the “Cytotoxic CTL response, % (at 50:1) E:T ratio vs WT1+ allo APC with restricting HLA allele loaded with WT1 peptide” value (HLA-A0201) was 18%.

With PSCLESQPA [WT1 135-143 PSCLESQPA] the “Cytotoxic CTL response, % (at 50:1) E:T ratio vs WT1+ allo APC with restricting HLA allele loaded with WT1 peptide” value (HLA-B3501) was 21%.

ASGSEPQQM [WT1 (-8)-(1) ASGSEPQQM] was tested, and the “Cytotoxic CTL response, % (at 50:1) E:T ratio vs WT1+ allo APC with restricting HLA allele loaded with WT1 peptide” value (HLA-B3501) was 51%.

With HHAAQFPNH [WT1 166-174 HHAAQFPNH] the “Cytotoxic CTL response, % (at 50:1) E:T ratio vs WT1+ allo APC with restricting HLA allele loaded with WT1 peptide” value (HLA-B3801) was 17%.

With NMHQRNHTKL [WT1 436-445 NMHQRNHTKL] the “Cytotoxic CTL response, % (at 50:1) E:T ratio vs WT1+ allo APC with restricting HLA allele loaded with WT1 peptide” value (HLA-A0201) was 32%, the “Cytotoxic CTL response, % (at 50:1) E:T ratio vs WT1+ allo APC with restricting HLA allele loaded with WT1 peptide” value (HLA-B4001) was 26% and the “Cytotoxic CTL response, % (at 50:1) E:T ratio vs WT1+ allo APC with restricting HLA allele loaded with WT1 peptide” value (HLA-A2402) was 27%.

In the case of PLPHFPPSL [WT1 (-110)-(-102) PLPHFPPSL], the “Cytotoxic CTL response, % (at 50:1) E:T ratio vs WT1+ allo APC with restricting HLA allele loaded with WT1 peptide” value (HLA-A0201) is reported as 24%.

In the case of PGCLQQPEQ [WT1 (-47)-(-39) PGCLQQPEQ], the “Cytotoxic CTL response, % (at 50:1) E:T ratio vs WT1+ allo APC with restricting HLA allele loaded with WT1 peptide” value (HLA-B4701) is reported as 25% and the “Cytotoxic CTL response, % (at 50:1) E:T ratio vs WT1+ allo APC with restricting HLA allele loaded with WT1 peptide” value (HLA-A0201) is reported as 27%.

NQGYSTVTF [WT1 146-154 NQGYSTVTF] was tested, and the “Cytotoxic CTL response, % (at 50:1) E:T ratio vs WT1+ allo APC with restricting HLA allele loaded with WT1 peptide” value (HLA-A0101) was 15%.

With CHTPTDSCT [WT1 202-210 CHTPTDSCT] the “Cytotoxic CTL response, % (at 50:1) E:T ratio vs WT1+ allo APC with restricting HLA allele loaded with WT1 peptide” value (HLA-B4402) was 19%.

RTPYSSDNL [WT1 218-226 RTPYSSDNL] was tested, and the “Cytotoxic CTL response, % (at 50:1) E:T ratio vs WT1+ allo APC with restricting HLA allele loaded with WT1 peptide” value (HLA-B3503) was 31%.

In the case of SGQARMFPN [WT1 122-130 SGQARMFPN], the “Cytotoxic CTL response, % (at 50:1) E:T ratio vs WT1+ allo APC with restricting HLA allele loaded with WT1 peptide” value (HLA-C0401) is reported as 41% and the “Cytotoxic CTL response, % (at 50:1) E:T ratio vs WT1+ allo APC with restricting HLA allele loaded with WT1 peptide” value (HLA-B3503) is reported as 41%.

CTGSQALLL [WT1 209-217 CTGSQALLL] was tested, and the “Cytotoxic CTL response, % (at 50:1) E:T ratio vs WT1+ allo APC with restricting HLA allele loaded with WT1 peptide” value (HLA-A0101) was 26%.

For PGCLQQPEQQG [WT1 (-47)-(-37) PGCLQQPEQQG], the “Cytotoxic CTL response, % (at 50:1) E:T ratio vs WT1+ allo APC with restricting HLA allele loaded with WT1 peptide” value (HLA-DRB10101) was 25%.

In the case of FMCAYPGCNK [WT1 323-332 FMCAYPGCNK], the “Cytotoxic CTL response, % (at 50:1) E:T ratio vs WT1+ allo APC with restricting HLA allele loaded with WT1 peptide” value (HLA-B3501) is reported as 61% and the “Cytotoxic CTL response, % (at 50:1) E:T ratio vs WT1+ allo APC with restricting HLA allele loaded with WT1 peptide” value (HLA-A0101) is reported as 0%.

In the case of WNQMNLGAT [WT1 238-246 WNQMNLGAT], the “Cytotoxic CTL response, % (at 50:1) E:T ratio vs WT1+ allo APC with restricting HLA allele loaded with WT1 peptide” value (HLA-B3508) is reported as 21%, the “Cytotoxic CTL response, % (at 50:1) E:T ratio vs WT1+ allo APC with restricting HLA allele loaded with WT1 peptide” value (HLA-A0201) is reported as 21% and the “Cytotoxic CTL response, % (at 50:1) E:T ratio vs WT1+ allo APC with restricting HLA allele loaded with WT1 peptide” value (HLA-A0101) is reported as 19%. For the same binder, the “Cytotoxic CTL response, % (at 50:1) E:T ratio vs WT1+ allo APC with restricting HLA allele loaded with WT1 peptide” value (HLA-C1701) was 7%.

For RKFSRSDHL [WT1 390-398 RKFSRSDHL], the “Cytotoxic CTL response, % (at 50:1) E:T ratio vs WT1+ allo APC with restricting HLA allele loaded with WT1 peptide” value (HLA-A0201) was 27%.

In the case of CMTWNQMNLGATLKG [WT1 235-249 CMTWNQMNLGATLKG], the “Cytotoxic CTL response, % (at 50:1) E:T ratio vs WT1+ allo APC with restricting HLA allele loaded with WT1 peptide” value (HLA-DRB10402) is reported as 15%.

RDLNALLPAV [WT1 6-15 RDLNALLPAV] was tested, and the “Cytotoxic CTL response, % (at 50:1) E:T ratio vs WT1+ allo APC with restricting HLA allele loaded with WT1 peptide” value (HLA-B5701) was 22% and the “Cytotoxic CTL response, % (at 50:1) E:T ratio vs WT1+ allo APC with restricting HLA allele loaded with WT1 peptide” value (HLA-A0201) was 31%.

For SAYGSLGGP [WT1 46-54 SAYGSLGGP], the “Cytotoxic CTL response, % (at 50:1) E:T ratio vs WT1+ allo APC with restricting HLA allele loaded with WT1 peptide” value (HLA-A0201) was 31% and the “Cytotoxic CTL response, % (at 50:1) E:T ratio vs WT1+ allo APC with restricting HLA allele loaded with WT1 peptide” value (HLA-B4001) was 24%.

LDFAPPGAS [WT1 38-46 LDFAPPGAS] was tested, and the “Cytotoxic CTL response, % (at 50:1) E:T ratio vs WT1+ allo APC with restricting HLA allele loaded with WT1 peptide” value (HLA-A0201) was 62%.

AILDFLLLQ [WT1 (-75)-(-67) AILDFLLLQ] was tested, and the “Cytotoxic CTL response, % (at 50:1) E:T ratio vs WT1+ allo APC with restricting HLA allele loaded with WT1 peptide” value (HLA-A0201) was 17%.

With GAAQWAPVL [WT1 30-38 GAAQWAPVL] the “Cytotoxic CTL response, % (at 50:1) E:T ratio vs WT1+ allo APC with restricting HLA allele loaded with WT1 peptide” value (HLA-B3901) was 19%.

With ACRYGPFGP [WT1 106-114 ACRYGPFGP] the “Cytotoxic CTL response, % (at 50:1) E:T ratio vs WT1+ allo APC with restricting HLA allele loaded with WT1 peptide” value (HLA-B4402) was 23%.

With KRPFMCAYPGC [WT1 320-334 KRPFMCAYPGC] the “Cytotoxic CTL response, % (at 50:1) E:T ratio vs WT1+ allo APC with restricting HLA allele loaded with WT1 peptide” value (HLA-DRB10401) was 0%.

With NQMNLGATL [WT1 239-248 NQMNLGATL] the “Cytotoxic CTL response, % (at 50:1) E:T ratio vs WT1+ allo APC with restricting HLA allele loaded with WT1 peptide” value (HLA-A2402) was 2%.

With TLGVAAGS [WT1 246-253 TLGVAAGS] the “Cytotoxic CTL response, % (at 50:1) E:T ratio vs WT1+ allo APC with restricting HLA allele loaded with WT1 peptide” value (HLA-A6901) was 57%.

GGCALPVSGA [WT1 22-31 GGCALPVSGA] was tested, and the “Cytotoxic CTL response, % (at 50:1) E:T ratio vs WT1+ allo APC with restricting HLA allele loaded with WT1 peptide” value (HLA-A0201) was 25%.
